Assay [1] has as its target T1, Flag-mCherry-ColLeaf-Cys-6His (Pseudomonas sp Leaf83). Briefly: EIA 8 plex n° 2: colicin coated at 100 nM, Im-RLuc8 alone at 100 nM, luciferase signal.
The target in assay [2] is T2, Flag-mCherry-ColE8-6His (Escherichia coli).
T2 construct: also called Colicin E8
Description: EIA 8 plex n° 1: colicin coated at 100 nM, Im-RLuc8 alone at 100 nM, luciferase signal (FIG. 3, light grey bars).

The target in assay [3] is T2, Flag-mCherry-ColE8-6His. Briefly: EIA 8 plex n° 2: colicin coated at 100 nM, Im-RLuc8 alone at 100 nM, luciferase signal (FIG. 4, light grey bars).
Assay [4] concerns the target Flag-mCherry-ColSyr-Cys-6His (Pseudomonas syringae B728A). Description: EIA 8 plex n° 1: colicin coated at 100 nM, Im-RLuc8 at 100 nM, luminescence; light bar alone, dark bar with the 7 other unfused Im proteins.
Assay [5] concerns the target Flag-mCherry-ColKhan-Cys-6His (Photorhabdus khanii). The description is as above.
The target in assay [6] is T2, Flag-mCherry-ColE8-6His. Description: EIA 4 plex: colicin coated at 100 nM, Im-RLuc8 alone at 100 nM, luciferase signal (FIG. 1, light grey bars).
In assay [7] the target is T3, Flag-mCherry-ColAP41-Cys-6His (Pseudomonas aeruginosa AP41). Briefly: EIA 8 plex n° 2: colicin coated at 100 nM, Im-RLuc8 at 100 nM, luminescence; light bar alone, dark bar with the 7 other unfused Im proteins.
Assay [8] has as its target T4, Flag-mCherry-ColE9-6His (Escherichia coli).
T4 construct: also called Colicin E9
Description: kinetics, literature value (Li W. et al., 2004) printed above the bar pair; unit from the legend paragraph 10.

The target in assay [9] is T5, Flag-EmGFP-ColE2-6His (Escherichia coli).
T5 construct: Coated on the plate or sprayed on the membrane; also called Colicin E2
The assay is described as above.

The target of assay [10] is T6, Flag-EmGFP-ColE7-6His (Escherichia coli).
T6 construct: also called Colicin E7
Described as above.

The target of assay [11] is T4, Flag-mCherry-ColE9-6His. Briefly: EIA 8 plex n° 1: colicin coated at 100 nM, Im-RLuc8 alone at 100 nM, luciferase signal.
Assay [12] deals with T7, Flag-mCherry-ColErw-Cys-6His (Pectobacterium carotovorum). Described as above.
Assay [13] deals with T6, Flag-EmGFP-ColE7-6His. The description is as above.
The target of assay [14] is T6, Flag-EmGFP-ColE7-6His. Description: EIA 8 plex n° 1: colicin coated at 100 nM, Im-RLuc8 alone at 100 nM, luciferase signal (FIG. 3, light grey bars).
Assay [15] addresses T2, Flag-mCherry-ColE8-6His. Description: EIA: colicin coated at 100 nM, Im-RLuc8 at 100 nM, luminescence; light bar alone, dark bar with the 3 other unfused Im proteins.
In assay [16] the target is T3, Flag-mCherry-ColAP41-Cys-6His. Description: EIA 8 plex n° 1: colicin coated at 100 nM, Im-RLuc8 at 100 nM, luminescence; light bar alone, dark bar with the 7 other unfused Im proteins.
Assay [17] concerns the target T7, Flag-mCherry-ColErw-Cys-6His. The assay is described as above.
For assay [18], the target named is T6, Flag-EmGFP-ColE7-6His. Briefly: EIA 4 plex: colicin coated at 100 nM, Im-RLuc8 alone at 100 nM, luciferase signal (FIG. 1, light grey bars).
Assay [19] concerns the target T5, Flag-EmGFP-ColE2-6His. Briefly: EIA 8 plex n° 1: colicin coated at 100 nM, Im-RLuc8 alone at 100 nM, luciferase signal (FIG. 3, light grey bars).
Assay [20] deals with T5, Flag-EmGFP-ColE2-6His. Briefly: EIA 8 plex n° 2: colicin coated at 100 nM, Im-RLuc8 alone at 100 nM, luciferase signal (FIG. 4, light grey bars).
The target in assay [21] is T5, Flag-EmGFP-ColE2-6His. Briefly: EIA 4 plex: colicin coated at 100 nM, Im-RLuc8 alone at 100 nM, luciferase signal (FIG. 1, light grey bars).
Assay [22] deals with T1, Flag-mCherry-ColLeaf-Cys-6His. Briefly: EIA 8 plex n° 2: colicin coated at 100 nM, Im-RLuc8 at 100 nM, luminescence; light bar alone, dark bar with the 7 other unfused Im proteins.
Assay [23] deals with T7, Flag-mCherry-ColErw-Cys-6His. Described as above.
The target of assay [24] is T2, Flag-mCherry-ColE8-6His. Description: kinetics, literature value (Li W. et al., 2004) printed above the bar pair; unit from the legend paragraph 10.

Where only a bound is given, the exact number is not on record here.

The term Kd denotes the free concentration of one partner at which half of the binding sites on the other are occupied at equilibrium, for simple one-to-one binding. High values mean a looser complex, low ones a tighter complex.

B1: Myc-RLuc8-Im8-6His (other)
chain: MGGEQKLISEEDLGGSASKVYDPEQRKRMITGPQWWARCKQMNVLDSFINYYDSEKHAENAVIFLHGNATSSYLWRHVVPHIEPVARCIIPDLIGMGKSGKSGNGSYRLLDHYKYLTAWFELLNLPKKIIFVGHDWGAALAFHYAYEHQDRIKAIVHMESVVDVIESWDEWPDIEEDIALIKSEEGEKMVLENNFFVETVLPSKIMRKLEPEEFAAYLEPFKEKGEVRRPTLSWPREIPLVKGGKPDVVQIVRNYNAYLRASDDLPKLFIESDPGFFSNAIVEGAKKFPNTEFVKVKGLHFLQEDAPDEMGKYIKSFVERVLKNEQKLELKNSISDYTETEFKKIIEDIINCEGDEKKQDDNLEHFISVTEHPSGSDLIYYPEGNNDGSPEAVIKEIKEWRAANGKSGFKQGLEGGGSHHHHHH
notes: Immunity protein fused to the luciferase RLuc8 as reporter; added in solution; also called Im8-RLuc8; Im8-Rluc8
With B1, the RLU in [1] was over 100000 RLU; in the assay with Flag-mCherry-ColE8-6His [2], over 2e+06 RLU; with Flag-mCherry-ColE8-6His [3], over 2.4e+06 RLU; with Flag-mCherry-ColE8-6His [6] it was over 400000 RLU; with Flag-mCherry-ColE9-6His [11], over 100000 RLU; in [12] it was over 100000 RLU. The molecule also displayed an RLU in the assay with Flag-EmGFP-ColE7-6His [13] of over 100000 RLU. The binding result in assay [4], in [5] and in assay [7] was “no binding (tested: 100 nM)” in each case. In addition, the Kd with Flag-mCherry-ColE9-6His [8] was 500 nM; with Flag-EmGFP-ColE2-6His [9], 38 nM; in the assay with Flag-EmGFP-ColE7-6His [10], 0.37 nM.

B2: Myc-RLuc8-Im7-6His (other)
chain: MGGEQKLISEEDLGGSASKVYDPEQRKRMITGPQWWARCKQMNVLDSFINYYDSEKHAENAVIFLHGNATSSYLWRHVVPHIEPVARCIIPDLIGMGKSGKSGNGSYRLLDHYKYLTAWFELLNLPKKIIFVGHDWGAALAFHYAYEHQDRIKAIVHMESVVDVIESWDEWPDIEEDIALIKSEEGEKMVLENNFFVETVLPSKIMRKLEPEEFAAYLEPFKEKGEVRRPTLSWPREIPLVKGGKPDVVQIVRNYNAYLRASDDLPKLFIESDPGFFSNAIVEGAKKFPNTEFVKVKGLHFLQEDAPDEMGKYIKSFVERVLKNEQKLELKNSISDYTEAEFVQLLKEIEKENVAATDDVLDVLLEHFVKITEHPDGTDLIYYPSDNRDDSPEGIVKEIKEWRAANGKPGFKQGLEGGGSHHHHHH
notes: Immunity protein fused to the luciferase RLuc8 as reporter; added in solution; also called Im7-RLuc8; Im7-Rluc8
As to B2, the figures for the RLU in the assay with Flag-EmGFP-ColE7-6His [14] and in the assay with Flag-EmGFP-ColE7-6His [18] were over 2e+06 RLU and over 400000 RLU, respectively. Also, the binding result in the assay with Flag-mCherry-ColE8-6His [15] is reported as “binds”; in [4] it was “no binding (tested: 100 nM)”; in [16], “no binding (tested: 100 nM)”; in assay [5], “no binding (tested: 100 nM)”; in assay [17], “no binding (tested: 100 nM)”. Further, the Kd in the assay with Flag-mCherry-ColE9-6His [8] was about 100000 nM; in the assay with Flag-EmGFP-ColE2-6His [9], 14 nM.

B3: Myc-RLuc8-Im2-6His (other)
chain: MGGEQKLISEEDLGGSASKVYDPEQRKRMITGPQWWARCKQMNVLDSFINYYDSEKHAENAVIFLHGNATSSYLWRHVVPHIEPVARCIIPDLIGMGKSGKSGNGSYRLLDHYKYLTAWFELLNLPKKIIFVGHDWGAALAFHYAYEHQDRIKAIVHMESVVDVIESWDEWPDIEEDIALIKSEEGEKMVLENNFFVETVLPSKIMRKLEPEEFAAYLEPFKEKGEVRRPTLSWPREIPLVKGGKPDVVQIVRNYNAYLRASDDLPKLFIESDPGFFSNAIVEGAKKFPNTEFVKVKGLHFLQEDAPDEMGKYIKSFVERVLKNEQKLELKHSISDYTEAEFLEFVKKICRAEGATEEDDNKLVREFERLTEHPDGSDLIYYPRDDREDSPEGIVKEIKEWRAANGKSGFKQGLEGGGSHHHHHH
notes: Immunity protein fused to the luciferase RLuc8 as reporter; added in solution; also called Im2-RLuc8; Im2-Rluc8
For B3, the figures for the RLU in the assay with Flag-EmGFP-ColE2-6His [19], with Flag-EmGFP-ColE2-6His [20] and with Flag-EmGFP-ColE2-6His [21] were over 2e+06 RLU, over 2.4e+06 RLU and over 400000 RLU, respectively. For the same molecule, the binding result in assay [4], in [16], in assay [5], in assay [22] and in [23] was “no binding (tested: 100 nM)” throughout. Also, the Kd with Flag-EmGFP-ColE2-6His [9] was determined as 3.9e-06 nM; with Flag-mCherry-ColE8-6His [24] it was 18 nM; with Flag-EmGFP-ColE7-6His [10], 0.36 nM.
